Laboratory results reported in patent US9540654B2, “Synthetic brassica-derived chloroplast transit peptides” (Dow AgroSciences LLC, priority 2012, dated 2017).

How the values were obtained:
Zea mays B104 = assay: Post-emergence glyphosate tolerance of dgt-28 T0 corn (greenhouse); type: in vivo; details: for protection to glyphosate: T0 corn, dgt-28 linked to the transit peptide
Method: Zea mays dgt-28 transformation events (T0) were allowed to acclimate in the greenhouse and were grown until plants had transitioned from tissue culture to greenhouse growing conditions (i.e., 2-4 new, normal looking leaves had emerged from the whorl). Plants were grown at 27° C. under 16 hour light:8 hour dark conditions in the greenhouse. The plants were then treated with commercial formulations of DURANGO DMA™ (containing the herbicide glyphosate) with the addition of 2% w/v ammonium-sulfate. Herbicide applications were made with a track sprayer at a spray volume of 187 L/ha, 50-cm spray height. T0 plants were sprayed with a range of glyphosate from 280-4480 g ae/ha glyphosate, which is capable of significant injury to untransformed corn lines. A lethal dose is defined as the rate that causes >95% injury to the B104 inbred.
T0 events of dgt-28 linked with TraP4, TraP5, TraP8 and TraP23 were generated by Agrobacterium transformation and were allowed to acclimate under controlled growth chamber conditions until 2-4 new, normal looking leaves had emerged from the whorl. Plants were assigned individual identification numbers and sampled for copy number analyses of both dgt-28 and aad-1. Based on copy number analyses, plants were selected for protein expression analyses. Plants were transplanted into larger pots with new growing media and grown at 27° C. under 16 hour light:8 hour dark conditions in the greenhouse. Remaining plants that were not sampled for protein expression were then treated with commercial formulations of DURANGO DMA™ (glyphosate) with the addition of 2% w/v ammonium-sulfate. Treatments were distributed so that each grouping of plants contained T0 events of varying copy number. Herbicide applications were made with a track sprayer at a spray volume of 187 L/ha, 50-cm spray height. T0 plants were sprayed with a range of glyphosate from 280-4480 g ae/ha glyphosate capable of significant injury to untransformed corn lines. A lethal dose is defined as the rate that causes >95% injury to the B104 inbred. B104 was the genetic background of the transformants.

[1] = test system: chloroplasts of the tobacco leaf tissue; assay: Tobacco transient assay, confocal microscopy of TraP-YFP; type: cell-based, Nicotiana benthamiana; details: Agrobacterium-infiltrated tobacco leaves
From the text: The Trap12 and TraP13 chimeric chloroplast transit peptide sequences were initially tested via a transient in planta assay. Polynucleotide sequences which encode the Trap12 (SEQ ID NO:5) and TraP13 (SEQ ID NO:7) chimeric chloroplast transit peptide sequences were synthesized. A linker sequence (SEQ ID NO:10) was incorporated between the TraP sequence and the yfp coding sequence. The resulting constructs contained two plant transcription units (PTU). The first PTU was comprised of the Arabidopsis thaliana Ubiquitin 10 promoter (AtUbi10 promoter; Callis, et al., (1990) J. Biol. Chem., 265: 12486-12493), Trap yellow fluorescent protein fusion gene (TraP-YFP; US Patent App. 2007/0298412), and Agrobacterium tumefaciens ORF 23 3′ untranslated region (AtuORF23 3′UTR; U.S. Pat. No. 5,428,147). […]
Agrobacterium-infiltrated tobacco leaves were severed from the plant, and placed into a petri-dish with water to prevent dehydration. The infiltrated tobacco leaves were observed under blue light excitation with long-pass filter glasses held in place using a Dark Reader Hand Lamp™ (Clare Chemical Research Co.; Dolores, Colo.) to identify undamaged areas of the leaf that were successfully expressing the YFP reporter proteins. […]

[2] = test system: tobacco (cv. Petit Havana); assay: Postemergence glyphosate tolerance of dgt-28 tobacco (T1, T2); type: in vivo; details: T1 tobacco, 2240 g ae/ha glyphosate, 14 DAT
From the text: T1 resistant plants from each event used in the progeny testing were given unique identifiers and sampled for zygosity analyses of the dgt-28 gene. Zygosity data were used to assign 2 hemizygous and 2 homozygous replicates to each rate of glyphosate applied allowing for a total of 4 replicates per treatment. These plants were compared against wildtype Petite havana tobacco. All plants were sprayed with a track sprayer set at 187 L/ha. The plants were sprayed from a range of 560-4480 g ae/ha DURANGO DMA™. All applications were formulated in water with the addition of 2% w/v ammonium sulfate (AMS). Plants were evaluated at 7 and 14 days after treatment. Plants were assigned an injury rating with respect to overall visual stunting, chlorosis, and necrosis. The T1 generation is segregating, so some variable response is expected due to difference in zygosity.
Rates of DURANGO DMA™ ranging from 420-3360 g ae/ha glyphosate were applied to 2-3 leaf tobacco as previously described.

Molecule | glyphosate concentration controlling non-transformed plants (Zea mays B104; non-transformed corn plants) | localization of YFP fluorescence signal (microscopy imaging) [1] | protection to glyphosate (Zea mays B104) | % Injury Ave [2]
O=C(O)CNCP(=O)(O)O [glyphosate, reference compound] | ≥ 280 g ae/ha |  |  | 
TraP13: chimeric chloroplast transit peptide SEQ ID NO:8, N-terminus from Arabidopsis thaliana, C-terminus from Brassica napus EPSPS (protein, TraP13 chloroplast transit peptide) MAQVSRICNGVQNPSLISNLSKSSQRKSPLSVSLKTQQPRASSWGLKKSGTMLNGSVIRPVKVTASVS |  | accumulated within the chloroplasts |  | 
TraP5: chloroplast transit peptide (SEQ ID NO:29) linked with dgt-28 (protein, Chloroplast Transit Peptide) MQLLNQRQALRLGRSSASKNQQVAPLASRPASSLSVSASSVAPAPACSAPAGAGRRAVVVRA |  |  | robust protection | 
TraP23: chloroplast transit peptide (SEQ ID NO:41) linked with dgt-28 or dgt-31 (protein, Chloroplast Transit Peptide) MAQINKSANGVRNASLISNFSNTRQAKSPFSLSCGTRLKNSSRGLKKVAVRLIGSRVKVSAS |  |  | robust protection | 9.5%
TraP8: chloroplast transit peptide (SEQ ID NO:30) linked with dgt-28 (protein, Chloroplast Transit Peptide) MAQSSRICHGVQNPCVIISNLSKSNQNKSPFSVSLKTHQQQRRAYQISSWGLKKSNNGSVIRPVKA |  |  | robust protection | 9.3%
